± gives the uncertainty stated by the source.
Experiment: protein stability index of a GFP-peptide fusion (yeast GPS) (PSI 1-4); higher = more stable; sorted into four equal gates, so the index is relative within each strain
How it was run: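 Tiled 17-residue yeast protein peptides were fused downstream of GFP in a plasmid that also expresses Cherry, and the pooled library was carried in yeast. Mid-log cultures in leucine-free medium were sorted into four equal gates by GFP/Cherry fluorescence ratio, and plasmids from each gate were PCR-amplified and Illumina-sequenced, with reads assigned to strains by barcodes. The protein stability index for each peptide was each gate's read frequency times its gate number, summed.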

Row | Sequence | protein stability index (doa10∆) | protein stability index (pdr5∆) | protein stability index (san1∆) | protein stability index (ubr1∆)
1 | HFRAPSRILYKAIRGMV [RPL16B] | 2.19 ± 0.096 | 2.67 ± 0.059 | 2.14 ± 0.1 | 2.21 ± 0.062
2 | TNPKLKSEFDDLSLNIH [YMR129W/POM152] | 2.96 ± 0.071 | 3.14 ± 0.056 | 3.02 ± 0.038 | 3.17 ± 0.05
3 | QILTVDPKTSLRIVKPT [RPC82] | 3.07 ± 0.21 | 2.99 ± 0.19 | 3.09 ± 0.12 | –
4 | PQQNKTPFSFGTANNNS [YJL041W/NSP1] | 3.28 ± 0.046 | 3.2 ± 0.038 | 3.12 ± 0.035 | 3.05 ± 0.034
5 | FSQKEMAFNLLGLLTPE [FAS2] | 2.52 ± 0.077 | 2.32 ± 0.072 | 2.18 ± 0.12 | 2.42 ± 0.064
6 | KLNIETMRKISSETDDD [DSN1] | 2.56 ± 0.074 | 2.27 ± 0.13 | 2.77 ± 0.12 | –
7 | RKQRVKKKTKKELELER [SWI1] | 2.69 ± 0.13 | 2.96 ± 0.13 | 3.56 ± 0.12 | 2.2 ± 0.13
8 | GDKDTRADIVRNIILEA [ISW2] | 2.1 ± 0.1 | 2.41 ± 0.06 | 2.09 ± 0.099 | 2.56 ± 0.11
9 | KAFKICEAAVEISKKDF [SIR3] | 3.19 ± 0.13 | 2.88 ± 0.082 | 2.79 ± 0.14 | 2.85 ± 0.12
10 | LVGEYWEQLKITVVPVV [QCR6] | 1.38 ± 0.26 | – | – | –
11 | AKNKSTRINGLNSNNSI [REC8] | 3.43 ± 0.14 | 3.15 ± 0.098 | 3.25 ± 0.061 | 3.27 ± 0.073
12 | TKRQKHFAWLPTHIWNA [POP1] | 2.03 ± 0.031 | 1.82 ± 0.036 | 1.55 ± 0.05 | 1.74 ± 0.021
13 | FQIEADFIGHNSNINTL [ASC1] | 2.1 ± 0.06 | 2.63 ± 0.049 | 2.35 ± 0.081 | 2.68 ± 0.043
14 | ATYMDNDIAGQPQALQK [RPO21] | 2.56 ± 0.077 | 2.49 ± 0.078 | 2.5 ± 0.073 | 2.7 ± 0.051
15 | AERDSQGGFYKQQDAEE [UBP6] | 3.35 ± 0.08 | 3.38 ± 0.089 | 3.07 ± 0.077 | 3.28 ± 0.055
16 | DDNDVPGPLPDTDSKPS [YLR018C/POM34] | 2.9 ± 0.12 | 2.98 ± 0.084 | 2.76 ± 0.11 | 2.38 ± 0.13
17 | AALDLSHTQNIGHLIKT [SMC2] | 2.88 ± 0.083 | 2.47 ± 0.063 | 2.27 ± 0.087 | 2.72 ± 0.046
18 | AGLGKTNELWARLAILK [YGR119C/NUP57] | 2.38 ± 0.086 | 1.67 ± 0.091 | 2.02 ± 0.2 | 3.56 ± 0.14
19 | SLKLENSDLEGKIRGVE [SMC2] | 3.23 ± 0.086 | 3.37 ± 0.064 | 3.37 ± 0.061 | 3.21 ± 0.05
20 | VDREAMLKPNIIFQQLL [YCG1] | 2.98 ± 0.24 | 2.78 ± 0.19 | – | –

Row | Sequence | protein stability index (doa10∆) | protein stability index (pdr5∆) | protein stability index (san1∆) | protein stability index (ubr1∆)
21 | DIKAAVDDSMELCGQIR [ITC1] | 2.65 ± 0.092 | 2.82 ± 0.12 | 2.21 ± 0.17 | 2.9 ± 0.14
22 | LNEKFQELRKKVNPNIM [SMC2] | – | 2.61 ± 0.27 | 2.98 ± 0.2 | 2.81 ± 0.15
23 | DHDDSTDDADDHINWEH [NSL1] | 3.31 ± 0.088 | 3.31 ± 0.094 | 3.26 ± 0.056 | 3.35 ± 0.04
24 | EQQWITRAQYLAFAKLV [SRP68] | 1.63 ± 0.06 | 1.51 ± 0.051 | 1.33 ± 0.086 | 1.5 ± 0.051
25 | NNVNEYSYTTIVLSDQT [YJL039C/NUP192] | 3.11 ± 0.059 | 3.14 ± 0.066 | 3.09 ± 0.045 | 2.93 ± 0.044
26 | LSSHSSTNSNSKPSTAS [RPN4] | 2.61 ± 0.087 | 2.71 ± 0.082 | 2.93 ± 0.059 | 2.86 ± 0.052
27 | QLCQITCQILESGEDEA [RRP46] | 2.25 ± 0.19 | 1.98 ± 0.082 | 1.72 ± 0.09 | 1.99 ± 0.061
28 | QLNSRAVAVVVDPIQSV [RPN11] | 1.27 ± 0.067 | 1.65 ± 0.076 | 1.43 ± 0.12 | 1.48 ± 0.051
29 | MHRKSLRRASATVPSAP [YAR002W/NUP60] | 2.64 ± 0.071 | 2.82 ± 0.092 | 2.39 ± 0.064 | 2.74 ± 0.063
30 | LKNTMQYLTNFSRFRDQ [RPB4] | 3.09 ± 0.12 | 2.97 ± 0.17 | 3.1 ± 0.087 | 3.19 ± 0.074
31 | DTIDNVKSKIQDKEGIP [RPS31] | 3.22 ± 0.098 | 3.46 ± 0.089 | 3.38 ± 0.05 | 3.57 ± 0.075
32 | TEKLSNGFSFTKFNHNK [YOR098C/NUP1] | 3.02 ± 0.089 | 3.14 ± 0.064 | 3.02 ± 0.037 | 2.94 ± 0.063
33 | CSIEPIAAKLINSGLYS [YML103C/NUP188] | 1.77 ± 0.066 | 1.29 ± 0.065 | 1.67 ± 0.12 | 1.19 ± 0.062
34 | DIINAVNEIMYKCTAAM [MTW1] | 2.73 ± 0.089 | 2.77 ± 0.1 | 2.84 ± 0.11 | 2.33 ± 0.072
35 | SFAIYSSTIDAPAFHTS [SRB8] | 2.21 ± 0.055 | 2.21 ± 0.056 | 2.03 ± 0.065 | 2.25 ± 0.045
36 | LFLIIQCYKIYDLVILK [YMR129W/POM152] | 1.29 ± 0.063 | 1.2 ± 0.045 | 1.16 ± 0.085 | 1.16 ± 0.044
37 | ISLEALNFYITNVPKAK [SIR3] | 2.67 ± 0.065 | 2.82 ± 0.063 | 2.62 ± 0.053 | 2.87 ± 0.035
38 | NGVIIAADNLGSYGSLL [PRE4] | 3.05 ± 0.13 | 3.15 ± 0.13 | 2.92 ± 0.21 | 3.12 ± 0.2
39 | ESDSKATLQSNEPTQKD [DSN1] | 2.81 ± 0.12 | 2.94 ± 0.14 | 2.99 ± 0.071 | 3.02 ± 0.086
40 | LQKKVASILLALTQMDQ [RPB3] | 2.88 ± 0.15 | 2.9 ± 0.14 | 2.16 ± 0.15 | 2.62 ± 0.066

— the supplement of paper PMC9732359
